Key:
[1] = Michaelis-Menten kinetics of cocaine hydrolysis (absorbance at 240 nm); assay type: biochemical; settings: cocaine
Description: (§1) The initial rates (of decay) were determined by following the change in the intrinsic absorbance of cocaine at 240 nm (6700 M^1 cm^1)(Xie et al., 1999) using a SpectraMax Plus 384 UV plate reader (Molecular Devices, Sunnyvale, Calif.) using SOFTmax Pro software (Version 3.1.2). The reaction was initiated by adding 100 μL of a 2× enzyme solution (100 mM phosphate buffer, pH 7.4 and 300 mM NaCl) to 100 μL of a 2× cocaine solution (50 μg/mL enzyme, 100 mM Phosphate Buffer, pH 7.4 and 300 mM NaCl). All assays were performed with 100 μM DTT unless indicated otherwise. Final cocaine concentrations were as follows: 125, 62.5, 31.25, 15.63, 7.81, 3.91, 1.95, and 0.977 μM. Vmax and Km values were calculated using Prism (GraphPad Software, San Diego). For stability measurements, wild type and mutant enzymes were diluted to 2× concentration and incubated at 37° C. for the times indicated. At the end of each time point, an aliquot was removed and kinetic behavior was observed as outlined above.
(§2) In vitro kinetic assays. […] Initial rates were then used to determine Michaelis-Menten parameters. To assess thermal stability, enzyme preparations were preincubated at 37° C. for various lengths of time, prior to measurement of residual activities (Table 1 and FIG. 23).
Determination of Catalytic Efficiency. To determine the catalytic activity a spectrophometric assay was performed. Samples of L169K/G173Q CocE were added to a 96-well UV permeable plate containing increasing cocaine concentrations (0.5, 2.5, 5, 12.5, 25, 50, 100, and 150 μM) to give a final concentration of 10 ng/ml CocE in a final volume of 200 μl. The change in absorbance at 240 nm was measured over 20 minutes, with readings every 10 seconds, by a SpectraMax Plus 384 UV plate reader (Molecular Devices, Sunnyvale, Calif.) using SOFTmax Pro software (Version 3.1.2). The change in absorbance was converted to the change in concentration and furthermore the rate of decay per mole enzyme is determined (Kcat). Kcat and Km of the enzyme are determined using Prism (GraphPad software, San Diego).

[2] = 37° C., absence of DTT
Description: Analysis of CocE action on cocaine cleavage is performed by utilizing the spectroscopic properties of cocaine, which maximally absorbs light at a 240 nm wavelength. CocE activity is measured by monitoring for a decrease in signal at A240, using various concentrations of cocaine, and determining the initial rate of the decrease. From these values the Vmax of the enzyme can be determined. By pre-incubating the enzyme at 37° C. for various times before monitoring for activity, the half life of CocE at 37° C. can be calculated.
as §1, with “Final cocaine concentrations were as follows: 125, 62.5, 31.25, 15.63, 7.81, 3.91, 1.95, and 0.977 μM. Vmax and Km values were calculated using Prism (GraphPad Software, San Diego).” left out
as §2

[3] = system: cocaine-induced lethality; assay: In vivo duration of protection against cocaine-induced lethality; design: species or system NIH-Swiss mice; settings: 1 mg i.v.; cocaine 180 mg/kg i.p.
Description: In vivo protection against cocaine lethality. Male NIH-Swiss mice (25-32 g) were obtained from Harlan Inc. (Indianapolis, Ind.) and were housed in groups of 6 mice per cage. All mice were allowed ad libitum access to food and water, and were maintained on a 12-h light-dark cycle with lights on at 06.30 AM in a room kept at a temperature of 21-22° C. Experiments were performed in accordance with the Guide for the Care and Use of Laboratory Animals as adopted and promulgated by the National Institutes of Health. The experimental protocols were approved by the University Committee on the Use and Care of Animals at the University of Michigan.
Cocaine-induced toxicity was characterized by the occurrence of lethality, as defined by the cessation of observed movement and respiration. Mice were placed individually in Plexiglas observation chambers (16×28×20 cm high) to be habituated for 15 min before drug administration. Following intra-peritoneal (i.p.) cocaine administration, the mouse was immediately placed individually in the same chamber for observation. The presence or absence of lethality was recorded for 60 min following cocaine administration. The mouse was placed in a small restraint chamber (Outer tube diameter: 30 mm; Inner tube diameter: 24 mm) that left the tail exposed. The tail was cleansed with an alcohol wipe and a 30G1/2 precision glide needle (Fisher Scientific, Pittsburgh, Pa.) was inserted into one of the side veins for infusion. The i.v. injection volume of CocE or CocE mutant was 0.2 mL per mouse. Sterile gauze and pressure were applied to the injection site to staunch the bleeding.
Lethality was monitored following injection at 1, 5, 10, or 30 min, or 1, 2, 3, 4, 5 hours after enzyme administration. Each treatment used 8 mice to assess the percent of lethality (i.e., protection) in mice pretreated with a single dose of an esterase at a single time point.
These values were used to compare the degree of rightward shifts of cocaine's dose-response curve in the absence or presence of the enzyme pretreatment. In the time course study, a time point for duration of protection (i.e., 50% of lethality) was estimated by using each time course curve crossing 50% occurrence of lethality.
Evaluation of in vivo half life. CocE is administered IV to the tail vein in a volume of 0.2 ml. Animals are challenged with 180 mg/kg cocaine delivered intraperitoneally at a given time after CocE administration.

[4] = Temperature-dependent decay in esterase activity (30 min pre-incubation); assay type: biochemical
Description: FIG. 26 is a graph showing temperature-dependent decay in esterase activity. 50 ng/ml wild-type CocE and the mutants were pre-incubated for 30 min at temperatures indicated (° C.) and activity measured (Xie et al., 1999). The activity of each mutant remaining (as a percentage of the maximal activity, Vmax, without preincubation) following pre-incubation are illustrated. Wild-type CocE (open bars) appears to inactivate between 30-35° C. whereas T172R/G173Q (shaded bars) and L169K (solid) both display enhance thermal stability (inactivation at 40-45° C.).
To test whether the improved enzymatic stability at 37° C. represents improved thermal stability of the protein fold, the capacity of the CocE at progressively higher temperatures were assessed (FIG. 26). The activity of wt CocE plummets precipitously after 30 min at approximately 30-35° C. Both L169K and T172R/G173Q each are inactivated at a higher temperature (40-45° C.). Circular dichroism analysis (near UV analysis) at varying temperatures, comparing wt-CocE and T172R/G173Q have melting temperatures in concordance with the loss of catalytic activity.

[5] = system: cocaine-induced lethality; assay: In vivo potency of protection against cocaine-induced lethality; design: species or system NIH-Swiss mice; settings: i.v. pretreatment 1 min prior to i.p. cocaine
[6] = mouse, in vivo; cited from earlier work
[7] = Circular dichroism melting temperature of CocE proteins alone; assay type: physicochemical; settings: circular dichroism, enzyme alone
Description: Further characterization of the stability of wild type (WT) CocE and thermostable mutants was performed through circular dichroism, which detects small changes in protein conformation and structure. Analysis by repeated CD measurements at increasing temperatures allows analysis of the thermodynamics and melting temperature (TM) of the protein, so long as the melting is reversible (i.e. the protein resumes it's original conformation upon cooling). […] However CD is still of value in determining the temperature to unfolding.

B1: wt-CocE: cocaine esterase of Rhodococcus sp. MB 1, SEQ ID NO:1 (protein, listed as Rhodococcus sp.)
chain: MVDGNYSVASNVMVPMRDGVRLAVDLYRPDADGPVPVLLVRNPYDKFDVFAWSTQSTNWLEFVRDGYAVVIQDTRGLFASEGEFVPHVDDEADAEDTLSWILEQAWCDGNVGMFGVSYLGVTQWQAAVSGVGGLKAIAPSMASADLYRAPWYGPGGALSVEALLGWSALIGTGLITSRSDARPEDAADFVQLAAILNDVAGAASVTPLAEQPLLGRLIPWVIDQVVDHPDNDESWQSISLFERLGGLATPALITAGWYDGFVGESLRTFVAVKDNADARLVVGPWSHSNLTGRNADRKFGIAATYPIQEATTMHKAFFDRHLRGETDALAGVPKVRLFVMGIDEWRDETDWPLPDTAYTPFYLGGSGAANTSTGGGTLSTSISGTESADTYLYDPADPVPSLGGTLLFHNGDNGPADQRPIHDRDDVLCYSTEVLTDPVEVTGTVSARLFVSSSAVDTDFTAKLVDVFPDGRAIALCDGIVRMRYRETLVNPTLIEAGEIYEVAIDMLATSNVFLPGHRIMVQVSSSNFPKYDRNSNTGGVIAREQLEEMCTAVNRIHRGPEHPSHIVLPIIKR
Kcat(mol · s^−1 · mol^−1) [1]: 2323 mol · s^−1 · mol^−1
half-time of inactivation, τinact [2]: approximately 25 min
LT50, pretreatment time to 50% lethality [3]: approximately 14 min
temperature of inactivation [4]: 30-35 °C
protection against cocaine-induced lethality [5]: protected
effective half-life in the blood stream [6]: ~10 min
melting temperature [7]: approximately 39 °C
